This note sets out measurements from paper PMC12980445.

The data set has as its system MRA_0776 (Mycobacterium tuberculosis H37Ra). The data set is described as follows: BLI. As to conditions: […] (pH not stated); BLI: PBST, 0.02% Tween-20, 30 C.

dosR promoter (SN441-BIO): the Kd was 2880 nM. This counts as single-digit micromolar.

What is called Kd is the constant that tells how readily two partners part at equilibrium. Low values mean higher affinity, high ones lower affinity.
